Test results reported in patent US20240425575A1.
pIC50: −log10 of the molar value.

Legend:
[1] = target: human ANG2 protein (623-AN-025/CF, R&D) (human) (UniProt O15123); assay: cell-based or functional assay
[2] = target: human ANG2 protein (623-AN-025/CF, R&D) (human) (UniProt O15123); assay: flow cytometry, inhibition of human ANG2 (10 µg/mL) binding to HUVEC cells

Chain of human ANG2 protein (623-AN-025/CF, R&D) (human) (O15123 19-496 limits assumed): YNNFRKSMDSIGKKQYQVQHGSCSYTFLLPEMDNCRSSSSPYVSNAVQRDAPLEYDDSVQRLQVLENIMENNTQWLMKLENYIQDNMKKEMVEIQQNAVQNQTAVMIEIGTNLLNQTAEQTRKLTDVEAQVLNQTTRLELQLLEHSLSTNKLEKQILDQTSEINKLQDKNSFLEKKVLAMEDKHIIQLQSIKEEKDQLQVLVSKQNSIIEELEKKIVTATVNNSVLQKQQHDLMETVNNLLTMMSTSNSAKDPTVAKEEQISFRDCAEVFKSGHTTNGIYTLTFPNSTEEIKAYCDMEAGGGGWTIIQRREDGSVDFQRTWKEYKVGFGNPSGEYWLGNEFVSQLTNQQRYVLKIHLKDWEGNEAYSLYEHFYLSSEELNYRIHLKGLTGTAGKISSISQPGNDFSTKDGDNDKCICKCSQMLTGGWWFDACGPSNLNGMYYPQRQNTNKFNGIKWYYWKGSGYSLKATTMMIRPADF

Substance: RG7716 (ATAD00534, Atagenix) (bispecific antibody)
- IC50 of inhibition of AKT phosphorylation of human ANG2-dependent HUVEC cells [1]: 27.3 nM
- pIC50 [2]: 7.27
